{
  "source": "paper PMC8065807",
  "origin": "cited, not measured here",
  "target": "EGFR (Homo sapiens) (UniProt P00533)",
  "note": "pKd: −log10 of the molar value.",
  "data": [
    {"substance": "GE11", "values": [
      {"measurement": "pKd", "value": 7.66}
    ]}
  ]
}
